Reference: patent publication US7001748B2, “Methods of making polyketides using hybrid polyketide synthases” (The Board of Trustees of the Leland Stanford Junior …, priority 1999, dated 2006)
Several values for one entry are separate records, joined by “and”; a condition that tells them apart may be missing. Equal values may be shown once. Read-outs that look alike come from different tables or passages of the source.

Legend:
M3+TE [1] = biological target: T1, M3+TE (Saccharopolyspora erythraea, UniProt Q03132+Q03133); conditions: cited from earlier work
T1 construct: encodes module 3 of DEBS (M3) with its own N-terminal linker and with the thioesterase fused to the C-terminus; natural N-terminal interpolypeptide linker of module 3 (start of DEBS2, ahead of the Module 3 feature); His6 (C); made in house; host or cells: E. coli BL21(DE3) co-expressing B. subtilis sfp

[2] = Kinetic constants kcat and KM for converting diketide to triketide (cell-free system); format: biochemical
Procedure: (§1) A cell-free system, tested for the ability to convert the cysteamine thioester of 2S,3R-2-methyl-3-hydroxypentanoic acid (compound 2 in FIG. 2), consisted of 0.5-10 mM concentration of the thioester, 2.5 mM ^14C-labeled methylmalonyl CoA and 100 pmoles of purified protein prepared in Example 1 in a 100 μl reaction. In some cases, 1 mM of NADPH was added; this was done in assay mixtures containing (M2+TE), (M5+TE) and (M6+TE) proteins. The protein was, in each case, a single module of the DEBS PKS fused to the thioesterase (TE) termination region of module 6.
(§2) The reaction mixtures were quenched and extracted by ethyl acetate and separated by thin-layer chromatography (TLC) to discern the formation of the triketide ketolactone 3 and triketide lactone 4 (both shown in FIG. 2) after 30 minutes.
The various constructs which are successful in converting diketide to triketide were then evaluated for the kinetic constants kcat and KM. […] This is evidently due to the absence of beta-carbonyl modifying enzymes in module 3 as verified by the fact that removal of NADPH, (which is required for the activity of such modules) from the reaction mixture of (N-ERL-M6+TE) also results in a lowering of the kcat.

[3] = Cell-free synthesis of triketides from diketide thioester by single module constructs; format: biochemical; conditions: purified protein, after 30 minutes
Procedure: as §1, §2

[4] = system: (5)M2+TE, (5)M5+TE, and (5)M6+TE; conditions: Wu et al. 2000; cited from earlier work
(5)M3+TE [5] = biological target: T2, (5)M3+TE (Saccharopolyspora erythraea, UniProt Q03132+Q03133); conditions: previously shown; cited from earlier work
T2 construct: (5)M3+TE: module 3 with N-terminal linker from module 5; N-terminal interpolypeptide linker of DEBS module 5 (start of DEBS3, Q03133); His6 (C); made in house; host or cells: E. coli BL21(DE3) co-expressing B. subtilis sfp

(3)M3+TE = biological target: T3, (3)M3+TE (Saccharopolyspora erythraea, UniProt Q03132+Q03133); conditions: previously shown; cited from earlier work
T3 construct: encodes module 3 of DEBS (M3) with its own N-terminal linker and with the thioesterase fused to the C-terminus; natural N-terminal interpolypeptide linker of module 3 (start of DEBS2, ahead of the Module 3 feature); His6 (C); made in house; host or cells: E. coli BL21(DE3) co-expressing B. subtilis sfp

module 5+TE = biological target: T4, module 5+TE (Saccharopolyspora erythraea, UniProt Q03133); conditions: diffusive loading, shown earlier; cited from earlier work
T4 construct: a single module of the DEBS PKS fused to the thioesterase (TE) termination region of module 6; thioesterase (TE) domain of DEBS (end of the same DEBS3 polypeptide); made in house; host or cells: E. coli BL21(DE3) co-expressing B. subtilis sfp

(5)M3+TE [6] = biological target: T2, (5)M3+TE; assay: Tetraketide lactone 2 formation, coincubation of donor module with (5)M3+TE; format: biochemical
Procedure: (§3) Assays of M2 and M3+TE contained 1.0 μM M2 and 0.4-4 μM M3+TE, 7 mM NDK, 0.5 mM ^14C-methylmalonyl-CoA (specific activity reduced to 3.4 mCi/mmol), 4 mM NADPH, 440 mM sodium phosphate, 1 mM EDTA, 2.5 mM DTT, and 20% w/v glycerol, pH 7.2, in 70 μL. Assays of M2(4) and (5)M3+TE were identical, except they contained 0.5 μM M2(4), 0.5-5 μM (5)M3+TE, and 0.4 mM ^14C-methylmalonyl-CoA (specific activity reduced to 6.2 mCi/mmol). The concentration of M2(4) was limiting in order to facilitate its saturation with (5)M3+TE. The reactions were prewarmed at 30° C. and initiated by the addition of the methylmalonyl-CoA. As described above, 20 μL aliquots were removed at various time points and processed. Extracts loaded onto TLC plates were separated using either 80% ethyl acetate in hexanes or 5% methanol in dichloromethane, both of which allowed identification of the tetraketide lactone 2 and the triketide lactones 3 and 4.
(§4) For tetraketide formation, the rate of production of tetraketide was recorded for varying concentrations of M3+TE [or (5)M3+TE] at a fixed concentration of M2 [or M2(4)] and saturating concentrations of substrates. By fitting the rate dependence of tetraketide to a saturation curve, the maximal velocity (νmax) of tetraketide production was determined, and was assumed to represent the case where every M2 homodimer was productively associated with an M3+TE homodimer. Thus, the affinity of this protein-protein interaction could be calculated from the rate of tetraketide formation, as represented in Equation 1 ν=kcat[M2-M3] (1) ([M2], [M3], and [M2-M3] refer to the concentrations of M2, unbound M3+TE, and the M2/M3+TE complex, respectively). Since [M2-M3] is related to the KD of M2 and M3+TE as shown in Equation 2, [formula] which can be rearranged to yield Equation 3, [formula] where [M2]0=total concentration of M2, the velocity of tetraketide production can be defined relative to the KD: [formula] where ν=kcat[M2-M3] and νmax=kcat[M2]0. […]

M3+TE [7] = biological target: T1, M3+TE; assay: Tetraketide lactone 2 formation, coincubation of donor module with M3+TE; format: biochemical
Procedure: as §3, §4

[8] = Kinetic analysis of individual modules with natural diketide (NDK); format: biochemical; conditions: NDK as substrate, 30° C., saturating NADPH and methylmalonyl-CoA
Procedure: In Vitro Polyketide Production. Assays of individual modules contained 1.0 μM protein, 1-10 mM N-acetylcysteamine thioester of the “natural” (2S,3R)-2-methyl-3-hydroxypentanoic acid diketide (NDK) (1), 4 mM NADPH, 440 mM sodium phosphate, 1 mM EDTA, 2.5 mM dithiothreitol (DTT), and 20% w/v glycerol, pH 7.2, in 80 μL. Reactions with M2 or M2(4) included 0.3 mM ^14C-methylmalonyl-CoA (specific activity adjusted to 10.4 mCi/mmol), and those with M3+TE or (5)M3+TE included 0.5 mM ^14C-methylmalonyl-CoA (specific activity reduced to 1.1 mCi/mmol). [M2(4) refers to a derivative of M2 in which the C-terminal linker has been replaced with its counterpart from module 4, whereas (5)M3 refers to a derivative of M3 in which the N-terminal linker has been replaced with its counterpart from module 5 (see FIG. 4).] […] Product formation was quantified by comparison with standards of the labeled methylmalonyl-CoA. […]
Kinetic Analysis. For individual modules, the steady-state turnover number was determined from the time course of triketide formation, normalized to the concentration of protein. The dependence of the rate on substrate concentration was measured by varying the concentration of NDK while maintaining saturating levels of NADPH and methylmalonyl-CoA.

Compound: DEBS1: first protein of 6-deoxyerythronolide B synthase, loading module and extender modules 1 and 2
- Kd (M3+TE [1]; Gokhale et al. 1999, read-out: KD, previously reported value): 2600 nM
- rate of formation of the same tetraketide, earlier measurement (M3+TE [1]; Pieper et al. 1997): 0.23 min^−

Compound: M5 + TE: single module 5 of DEBS fused to the thioesterase (TE) domain
- Km ([2]; diketide to triketide): 4.7 ± 0.4 mM
- kcat × 100 ([2]; diketide to triketide): 7.5 ± 0.7 min^−1
- Triketide Formed [3]: Yes
- Triketide Formed ([3]; listed as (M5+TE)): expected triketides were formed

Compound: CCC(O)C(C)C(=O)SCCNC(C)=O (stereo not drawn) [2d]
- incorporation of NAC thioester (qualitative) [4]: no turnover

Compound: CCC(O)C(C)C(=O)SCCNC(C)=O (stereo not drawn) [2b]
- incorporation of NAC thioester (qualitative) ((5)M3+TE [5]): readily incorporated and elongated
- incorporation of NAC thioester (qualitative) ((3)M3+TE): readily incorporated and elongated
- kcat (elongation rate constant), NAC thioester substrate (module 5+TE): 0.00033 s⁻¹
- incorporation of NAC thioester (qualitative) [4]: substrates for the three modules

Compound: M2: module 2 of DEBS, thioesterase replaced with the natural C-terminal linker for module 2
- highest rate constants that could be measured, tetraketide lactone 2 ((5)M3+TE [6]; mismatched linker pair): 0.02 to 0.03 min⁻¹
- Kd (M3+TE [7]; estimated from saturation curve): 1100 ± 100 nM
- kcat (maximum / saturating rate constant) of tetraketide lactone 2 formation (M3+TE [7]; fixed donor, variable M3+TE, 7 mM NDK): 0.0045 ± 0.00017 s⁻¹ and 0.0045 s⁻¹
- kcat [8]: ~0.00033 s⁻¹

Compound: ERL − M6 + TE: module 6+TE carrying the upstream 39 amino acids (N-ERL) from module 5
- Km ([2]; (− NADPH)): 4.1 ± 0.4 mM
- kcat × 100 ([2]; (− NADPH)): 4.5 ± 0.7 min^−1
- Km ([2]; diketide to triketide): 4.3 ± 0.4 mM
- kcat × 100 ([2]; diketide to triketide): 9.5 ± 0.6 min^−1
- Triketide Formed [3]: Yes
- Triketide Formed ([3]; listed as (N-ERL-M6+TE)): able to produce the triketide product

Compound: M2(4): derivative of M2 containing the C-terminal linker of DEBS module 4
- kcat (saturating rate) of tetraketide lactone 2 formation ((5)M3+TE [6]; fixed donor, variable (5)M3+TE): 0.0123 ± 0.001 s⁻¹ and 0.0123 s⁻¹
- Kd ((5)M3+TE [6]; from saturation curve): 2100 ± 400 nM
- highest rate constants that could be measured, tetraketide lactone 2 (M3+TE [7]; mismatched linker pair): 0.02 to 0.03 min⁻¹
- kcat [8]: ~0.0005 s⁻¹

Compound: ERL − M2 + TE: module 2+TE carrying the upstream 39 amino acids (N-ERL) from module 5
- Km ([2]; diketide to triketide): 4.6 ± 0.4 mM
- kcat × 100 ([2]; diketide to triketide): 8 ± 0.6 min^−1
- Triketide Formed [3]: Yes
- Triketide Formed ([3]; listed as (N-ERL-M2+TE)): able to produce the triketide product

Compound: CCC(O)C(C)C(=O)SCCNC(C)=O (stereo not drawn) [2c]
- incorporation of NAC thioester (qualitative) [4]: no turnover
